What was measured:
[1] = biological target: T1, human TfR-1 on the cell surface (hCMEC/D3 and SY-SH5Y cells) (human, UniProt P02786 1-760); assay: flow cytometry on hCMEC/D3 cells, percent positive cells, on ice
T1 construct: whole, on cells; also called cell surface TfR1; cell-surface hTfR1
Description: FIG. 2. Binding of TXP1 to hCMEC/D3 cells by flow cytometry. Approximately 10,000 cells were incubated with serially diluted TXP1 for 1 hour on ice. TXP1 binding was detected using anti-human IgG Alexa488-conjugated secondary antibody. PI staining was used to exclude dead cells from the analysis. The cells were fixed and analyzed by flow cytometry. 1,000 cells per condition were acquired. Gating of cells stained with secondary antibody only allowed to set a fluorescence threshold for negative signal.
(§1) Flow cytometry. hCMEC/D3 cells (Weksler 2013) were seeded onto V-bottom 96-well plates at a density of 1×10⁴ cells/well. After blocking in PBS containing 10% BSA (FACS buffer) for 20 min on ice, cells were incubated with serial dilutions of TXP1. Cells were stained with propidium iodine (PI; Biolegend) for 20 min on ice, followed by anti-hFc conjugated to Alexa488 diluted 1:300 (Jackson ImmunoResearch) for 30 min on ice. After fixation in 4% PFA for 15 min on ice, the cells were analyzed on a CytoFlex flow cytometer (Beckman Coulter). Gating of cells stained with secondary antibody established the fluorescence threshold for the negative signal. The fluorescence intensity of approximately 1000 cells per condition was measured. Dead or dying cells were excluded from the analysis by propidium iodide staining. EC50 values were calculated using a four parametric non-linear regression model.

[2] = biological target: T2, HSA (human, UniProt P02768 25-609); assay: ELISA, plate coated with HSA, detection with anti-hFc HRP and TMB
T2 construct: Negative control
T2 sequence (P02768 25-609): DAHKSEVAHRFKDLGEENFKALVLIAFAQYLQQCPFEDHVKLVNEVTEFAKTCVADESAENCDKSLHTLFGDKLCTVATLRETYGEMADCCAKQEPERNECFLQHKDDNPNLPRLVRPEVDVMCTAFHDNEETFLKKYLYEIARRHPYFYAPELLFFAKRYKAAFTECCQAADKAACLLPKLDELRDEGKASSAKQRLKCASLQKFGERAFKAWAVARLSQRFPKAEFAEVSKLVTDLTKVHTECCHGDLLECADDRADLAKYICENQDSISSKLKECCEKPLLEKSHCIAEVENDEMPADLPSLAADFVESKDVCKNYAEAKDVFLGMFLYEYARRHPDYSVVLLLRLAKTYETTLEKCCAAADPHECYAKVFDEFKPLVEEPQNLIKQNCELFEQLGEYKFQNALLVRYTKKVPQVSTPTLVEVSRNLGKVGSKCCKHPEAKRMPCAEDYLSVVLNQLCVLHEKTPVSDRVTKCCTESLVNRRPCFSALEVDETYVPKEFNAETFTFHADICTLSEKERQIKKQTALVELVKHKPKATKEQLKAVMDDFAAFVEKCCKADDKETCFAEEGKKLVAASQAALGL
Description: (§2) FIG. 1. Cross-species reactivity of TXP1 assessed by ELISA. Plates were coated with either mouse, human, cynomolgus or rat TfR-1. HSA was used as a negative control. Serial dilutions of TXP1 (a VNAR antibody) were added to the plate and binding was measured by end-point ELISA upon incubation with secondary anti-hFc HRP-conjugated antibodies and visualization with TMB.
(§3) TfR-1 binding ELISA. Nunc MaxiSorp plates were coated with 100 μl of 1 μg/ml of in-house purified recombinant human, mouse, rat and cynomolgus TfR-1 and incubated at 4° C. overnight. Plates were incubated with blocking buffer (2.5% non-fat dry milk in PBST) for 1 h at RT. Serially-diluted TXP1 was mixed with non-fat dry milk in PBST to a final concentration of 2.5% and incubated for 30 min. Blocked TXP1 solutions (100 μl) were transferred to the blocked plates and incubated for 1 hr. Plates were washed with PBST and incubated with anti-hFc HRP-conjugated antibody diluted 1:5,000 (Sigma) in blocking buffer for 30 min. Plates were washed and developed with SureBlue™ TMB substrate, the reaction stopped with 1% HCl and absorbance measured at 450 nm.

[3] = biological target: T3, recombinant rat TfR-1 (rat, UniProt Q99376 87-761, limits assumed); assay: ELISA, plate coated with recombinant rat TfR-1, detection with anti-hFc HRP and TMB
T3 construct: also called rTfR-1
T3 sequence (Q99376 87-761 limits assumed): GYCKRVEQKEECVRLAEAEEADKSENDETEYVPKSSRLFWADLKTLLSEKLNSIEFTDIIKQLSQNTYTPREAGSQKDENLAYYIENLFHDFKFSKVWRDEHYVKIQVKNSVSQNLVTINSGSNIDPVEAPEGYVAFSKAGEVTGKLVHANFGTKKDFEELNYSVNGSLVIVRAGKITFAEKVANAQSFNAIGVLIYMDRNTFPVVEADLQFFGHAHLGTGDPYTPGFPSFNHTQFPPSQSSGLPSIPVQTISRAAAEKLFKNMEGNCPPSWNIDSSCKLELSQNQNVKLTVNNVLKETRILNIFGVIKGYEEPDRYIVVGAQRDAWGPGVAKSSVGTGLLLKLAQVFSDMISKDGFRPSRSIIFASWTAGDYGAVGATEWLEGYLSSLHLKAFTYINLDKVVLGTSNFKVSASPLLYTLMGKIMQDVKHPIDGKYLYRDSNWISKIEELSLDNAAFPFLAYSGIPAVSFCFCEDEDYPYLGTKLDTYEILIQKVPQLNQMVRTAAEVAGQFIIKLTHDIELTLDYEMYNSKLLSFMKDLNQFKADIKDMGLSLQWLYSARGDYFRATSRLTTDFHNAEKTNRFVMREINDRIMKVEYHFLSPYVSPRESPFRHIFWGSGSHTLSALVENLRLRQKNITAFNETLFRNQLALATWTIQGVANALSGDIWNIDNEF
Description: as §2, §3

[4] = biological target: T4, recombinant human TfR-1 (transferrin receptor-1) (human, UniProt P02786 89-760); assay: ELISA, plate coated with human TfR-1, anti-hFc HRP, 4-parameter fit; drawn table under the curves
T4 construct: extracellular domain; In-house purified recombinant protein; also called hTfR-1; hTfR1
T4 sequence (P02786 89-760): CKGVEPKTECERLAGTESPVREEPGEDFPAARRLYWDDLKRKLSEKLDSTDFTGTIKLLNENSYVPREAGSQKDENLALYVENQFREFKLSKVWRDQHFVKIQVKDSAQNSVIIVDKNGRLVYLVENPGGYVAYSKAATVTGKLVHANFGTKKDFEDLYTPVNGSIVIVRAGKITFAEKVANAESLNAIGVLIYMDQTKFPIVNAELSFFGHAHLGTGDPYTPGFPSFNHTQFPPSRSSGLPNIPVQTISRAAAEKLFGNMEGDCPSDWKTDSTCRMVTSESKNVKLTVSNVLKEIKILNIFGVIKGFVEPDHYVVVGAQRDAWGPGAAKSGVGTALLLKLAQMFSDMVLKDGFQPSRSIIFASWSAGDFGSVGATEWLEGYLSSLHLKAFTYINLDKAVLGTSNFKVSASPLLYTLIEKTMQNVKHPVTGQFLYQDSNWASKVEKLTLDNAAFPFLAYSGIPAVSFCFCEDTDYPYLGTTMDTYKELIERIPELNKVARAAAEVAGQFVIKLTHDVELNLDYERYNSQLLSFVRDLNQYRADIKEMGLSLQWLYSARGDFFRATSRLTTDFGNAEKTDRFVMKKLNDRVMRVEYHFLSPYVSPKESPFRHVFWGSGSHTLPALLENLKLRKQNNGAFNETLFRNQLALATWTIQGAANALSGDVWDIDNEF
Description: (§4) FIG. 15. Binding activity of TXP1 and deimmunized variants assessed by ELISA. Plates were coated with either human or cynomolgus or rat TfR-1. HSA was used as a negative control. Serial dilutions of TXP1 (a VNAR antibody) or the variants as Fc fusions were added to the plate and binding was measured by end-point ELISA upon incubation with secondary anti-hFc HRP-conjugated antibodies and visualization with TMB.
as §3

[5] = biological target: T5, recombinant mouse TfR-1 (mouse, UniProt Q62351 89-763, limits assumed); assay: ELISA, plate coated with recombinant mouse TfR-1, detection with anti-hFc HRP and TMB
T5 construct: also called mTfR-1
T5 sequence (Q62351 89-763 limits assumed): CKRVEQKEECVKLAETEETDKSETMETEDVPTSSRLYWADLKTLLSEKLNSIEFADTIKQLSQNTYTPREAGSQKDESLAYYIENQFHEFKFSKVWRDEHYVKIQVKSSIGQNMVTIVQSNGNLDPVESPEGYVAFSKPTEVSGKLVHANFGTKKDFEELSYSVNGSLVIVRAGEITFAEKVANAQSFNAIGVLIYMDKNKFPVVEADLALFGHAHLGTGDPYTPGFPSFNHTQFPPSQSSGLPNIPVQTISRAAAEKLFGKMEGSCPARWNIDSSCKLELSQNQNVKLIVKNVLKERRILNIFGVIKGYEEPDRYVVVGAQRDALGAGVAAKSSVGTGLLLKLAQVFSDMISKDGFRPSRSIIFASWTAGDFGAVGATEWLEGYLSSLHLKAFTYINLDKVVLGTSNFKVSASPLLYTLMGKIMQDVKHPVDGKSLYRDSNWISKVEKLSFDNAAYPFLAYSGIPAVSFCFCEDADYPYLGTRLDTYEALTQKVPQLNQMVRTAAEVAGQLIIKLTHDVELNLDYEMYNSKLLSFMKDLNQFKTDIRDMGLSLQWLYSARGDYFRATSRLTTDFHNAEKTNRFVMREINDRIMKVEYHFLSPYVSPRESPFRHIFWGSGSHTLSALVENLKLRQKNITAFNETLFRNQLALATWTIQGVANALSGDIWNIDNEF
Description: as §2, §3

[6] = biological target: T6, recombinant cynomolgus TfR-1 (cynomolgus, UniProt H9EXL1 89-760 (rhesus entry)); assay: ELISA, plate coated with cynomolgus TfR-1, anti-hFc HRP, 4-parameter fit; drawn table under the curves
T6 construct: also called cTfR-1; cTfR1
T6 sequence (chain, as listed by the source): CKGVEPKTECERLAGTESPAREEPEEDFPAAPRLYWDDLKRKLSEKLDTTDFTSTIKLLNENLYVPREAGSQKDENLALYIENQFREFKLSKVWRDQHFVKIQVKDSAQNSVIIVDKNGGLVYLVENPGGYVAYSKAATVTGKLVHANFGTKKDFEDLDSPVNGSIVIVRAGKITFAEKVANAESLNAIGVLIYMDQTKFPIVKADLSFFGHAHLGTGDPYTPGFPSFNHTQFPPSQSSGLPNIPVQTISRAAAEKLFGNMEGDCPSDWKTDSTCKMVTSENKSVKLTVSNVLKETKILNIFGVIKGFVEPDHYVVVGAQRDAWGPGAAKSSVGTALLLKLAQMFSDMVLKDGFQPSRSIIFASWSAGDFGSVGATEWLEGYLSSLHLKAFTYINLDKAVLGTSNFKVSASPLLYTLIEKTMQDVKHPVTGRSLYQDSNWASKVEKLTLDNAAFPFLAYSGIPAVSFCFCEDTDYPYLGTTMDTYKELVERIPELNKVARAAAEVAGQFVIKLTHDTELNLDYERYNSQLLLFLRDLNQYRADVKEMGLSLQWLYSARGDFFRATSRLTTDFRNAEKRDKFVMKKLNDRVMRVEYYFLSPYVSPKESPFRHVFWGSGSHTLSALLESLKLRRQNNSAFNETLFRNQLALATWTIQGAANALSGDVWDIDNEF
Description: as §4, §3

[7] = biological target: T4, recombinant human TfR-1 (transferrin …); assay: ELISA on hTfR-1 captured by plate-coated human Tf (receptor already bound to Tf), detection with anti-hFc HRP and TMB
Description: Competition ELISAs. For competition studies, MaxiSorp plates were coated with 100 μl of human Tf, at the concentration of 5 μg/ml overnight at 4° C. Plates were washed with phosphate-buffered saline containing 0.1% Tween20 (PBST) and blocked for 1 h with 2.5% BSA in PBST. Wells were incubated with 50 μl of hTfR-1 at 10 μg/ml for 1 h at RT and washed before adding serially diluted TXP1 and A06 VNAR antibodies for 1 h at RT. Following washing, 100 μl of 1:5,000 anti-hFc HRP-conjugated antibody (Sigma) diluted in 2.5% BSA in PBST was added and incubated for 1 h. Plates were washed and developed with SureBlue™ TMB substrate, the reaction stopped with 1% HCl and absorbance measured at 450 nm.
TXP1 competition with Tf for binding to TfR-1 was assessed by ELISA. Plates coated with Tf were used to capture hTfR-1 before incubation with serial dilutions of TXP1, A06 VNAR antibody or isotype control G12 VNAR antibody. While TXP1 and A06 VNAR antibody bind with similar nM KD in the absence of Tf (Table 5), when TfR-1 was bound to Tf, TXP1 but not the A06 VNAR antibody was still able to bind the receptor (FIG. 4).

[8] = biological target: T1, human TfR-1 on the cell surface …; assay: flow cytometry on hCMEC/D3 cells, 1 h on ice, binding to cell surface TfR1
Description: as §1, with “Dead or dying cells were excluded from the analysis by propidium iodide staining.” left out
Functional activity of the fully deimmunised variants was assessed using the human endothelial cell line hCMEC/D3 and the human neuronal cell line SY-SH5Y. Binding to hCMEC/D3 cells was assessed by incubation with serial antibody dilutions for 1 h on ice to avoid internalisation. The cells were fixed and binding to cell surface TfR1 was measured by flow cytometry. […] Internalisation via cell-surface hTfR1 was assessed using the hCMEC/D3 and SY-SH5Y cell lines by incubation with the antibodies for 1 hour at 37° C.

[9] = biological target: T4, recombinant human TfR-1 (transferrin …); assay: SPR
[10] = biological target: T6, recombinant cynomolgus TfR-1; assay: SPR

T1 sequence (P02786 whole entry): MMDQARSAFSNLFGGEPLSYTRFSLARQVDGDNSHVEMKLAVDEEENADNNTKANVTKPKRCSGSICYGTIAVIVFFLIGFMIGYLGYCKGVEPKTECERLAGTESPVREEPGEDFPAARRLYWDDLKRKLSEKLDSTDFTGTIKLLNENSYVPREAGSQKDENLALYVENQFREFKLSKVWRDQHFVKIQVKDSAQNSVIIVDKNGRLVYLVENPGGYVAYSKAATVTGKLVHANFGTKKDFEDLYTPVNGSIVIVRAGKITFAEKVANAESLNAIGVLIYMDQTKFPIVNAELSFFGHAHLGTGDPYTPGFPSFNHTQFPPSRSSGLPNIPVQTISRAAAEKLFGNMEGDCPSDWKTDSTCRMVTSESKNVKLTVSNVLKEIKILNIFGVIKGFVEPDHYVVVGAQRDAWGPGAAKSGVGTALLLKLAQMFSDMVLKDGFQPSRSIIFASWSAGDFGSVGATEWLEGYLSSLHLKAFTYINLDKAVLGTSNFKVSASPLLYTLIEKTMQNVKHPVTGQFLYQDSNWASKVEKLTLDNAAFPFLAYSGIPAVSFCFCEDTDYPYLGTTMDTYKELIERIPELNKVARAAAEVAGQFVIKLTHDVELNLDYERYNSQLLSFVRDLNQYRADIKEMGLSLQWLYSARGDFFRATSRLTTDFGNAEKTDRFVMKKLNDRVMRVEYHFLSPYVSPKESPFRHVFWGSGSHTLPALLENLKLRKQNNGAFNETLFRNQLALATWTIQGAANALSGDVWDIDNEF

EC50 [1] | binding result [2] | binding result [3] | EC50 [4] | binding result [5] | EC50 [6] | EC50 (read off the curve) [7] | EC50 [8] | Kd [9] | koff [9] | kon [9] | Kd [10] | koff [10] | kon [10] | Binder
10.1 nM | no binding (tested: about 2e-6 M) | no binding (tested: about 2e-6 M) | 2.9 nM | no binding (tested: about 2e-6 M) | 3.3 nM | ~10 nM | – | – | – | – | – | – | – | TXP1 (VNAR-txp1 fused to the N-terminus of human IgG1 Fc with attenuated effector function) (Fc fusion, Bivalent VNAR-hFc, VNAR at the N-terminus of hFc IgG1; also called VNAR-txp1-hFc; VNAR antibody TXP1; not shown: Human IgG1 Fc with AEF mutations (E233P/L234V/L235A/ΔG236+A327G/A330S/P331S), and any hinge or linker at the junction) VNAR: ARVDQTPQTITKETGESLTINCVLRDSNCALSSTYWYRKKSGSTNEENISKGGRYVETVNSGSKSFSLKINDLTVEDSGTYRCNVVGTWCMSWRDVYGGGTAVTVNA
– | – | – | – | – | – | – | 2.1 nM | 3 nM | 0.00026 s⁻¹ | 87000 M⁻¹ s⁻¹ | 1.7 nM | 0.00014 s⁻¹ | 87000 M⁻¹ s⁻¹ | TXP1D4 (deimmunized variant VNAR-r2d4 fused to human IgG1 Fc) (Fc fusion, also called VNAR-r2d4-Fc; not shown: Human IgG1 AEF Fc and any hinge or linker at the junction) VNAR: ARVDQTPQTATKETGESLTINCVLRDSNCALSSTYWYRKKSGSTNEENISKGGRKYVETVESGSKSFSLKINDLTVEDSGTYRCNVVGTWCMSWRDVSGDGTVVTVNA
